Source: the nanobody polyreactivity screen of Harvey et al. (2022)

Experiment: yeast display, Sf9 membrane polyspecificity reagent, FACS + sequencing; frameworks hold sequencing errors
Method in brief: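 Galactose induction of a Saccharomyces cerevisiae BJ5465 synthetic nanobody display library ran 36–48 hours. The cells were then stained for 1 hour at 4 °C with 10% biotinylated, detergent-solubilized Sf9 membrane reagent, pulled down on streptavidin microbeads and FACS-sorted into low and high (top ~1%) gates on expression and reagent-binding fluorescence. Labels for polyreactivity follow the gate of origin.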

Sequence | polyreactivity (PSR sort gate)
QVQLVESGGGLVQAGGSLRLSCAASGSTFGPYTMGWKRPAPGKERELVATISSGGSTYYADSVKGRFTISRDNAKNTVYLQLNCLKPEDTAVYSCAKDFWYRSYDYWGQGTQVTLSS | low polyreactivity
QVQLVESGGGLVQAGGSLRLSCAASGSTFGPYVMGRYRQAPGKDRELVAAITRSGGRTYYADSVKGRFTISRDNAKNTVYLQMNSLKPEDTAVYYCAAPPSEATSQRYKYNYWGQGTQVTVSS | high polyreactivity
QVQLVESGGGLVQAGGSLRLSCAASGSTFGPYVMGWYRQAPGKERELVATITSDDSTNYADSVKGRFTISRDNAKNTVYLQMNSLKPEDTAVYYCAVERDYWTKASYYWGQGTQVTVSS | low polyreactivity
QVQLVESGGGLVQAGGSLRLSCAASGSTFGQYVMAWYRQAPGKERELVAAISSGDSTNYADSVKGRFTISRDNAKNTVYLQMNSLKPEDTAVYYCAAARRPTYWPVYPYFGYEYWGQGTQVTVSS | low polyreactivity
QVQLVESGGGLVQAGGSLRLSCAASGSTFGRNAMGWYRQAPGKERELVAAISYSGGSTYYADSVKGRFTISRDNAKNTVYLQMNSLKPEDTAVYYCNTVPKPWYSWKYAYDYWGQGTQVTVSS | high polyreactivity
QVQLVESGGGLVQAGGSLRLSCAASGSTFGRNAMGWYRQAPGKERELVAASNWSDGSTHYADSVKGRFTISRDNAKNTVYLQMNSLKPEDTAVYYCAADAWSWPVDYNYWGQGTQVTVSS | low polyreactivity
QVQLVESGGGLVQAGGSLRLSCAASGSTFGRNAMGWYRQAPGKERELVASISSGGSTYYADSVKGRFTISRDNAKNTVYLQMNSLKPEDTAVYYCARRAYQNWYNYWGQGTQVTVSS | high polyreactivity
QVQLVESGGGLVQAGGSLRLSCAASGSTFGRYAMGCYIQAPGKERELVAAITRSGGRTYYADSVKGRFTISRDNAKNTVYLQMNSLIPEDTAVYYCAARSRRRFDWGQGTQVTVSS | high polyreactivity
QVQLVESGGGLVQAGGSLRLSCAASGSTFGRYAMGWYGQAPGKERELVAAISASGASTYYADSVKGRFTISRDNAKNTVYLQMNSLKPEDTAVYYSNAPYYFAGKPWGSWRYGYWGQGTQVTVSS | low polyreactivity
QVQLVESGGGLVQAGGSLRLSCAASGSTFGRYAMGWYRQAPGKEREFVAGITGRGGSTYYADSVKGRFTISRDNAKNTVYLQMNSLKPEDTAVYYCAAGYRVGYLRAGDYWGQGTQVTVSS | high polyreactivity
QVQLVESGGGLVQAGGSLRLSCAASGSTFGRYAMGWYRQAPGKERELVAAINSRGGRKYYADSVKGRFTISRDNAKNTVYLQMNSLIPEDTAVYYCAAPTGPNGYYSDRGDSWGQGTQLTVSS | low polyreactivity
QVQLVESGGGLVQAGGSLRLSCAASGSTFGRYAMGWYRQAPGKERELVAAISESDGSTYYADSVKGRFTISRDNAKNTVYLQMNSLKPEDTAVYYCAAEWTHYWWYQYDYWGQGTQVTVSS | high polyreactivity
QVQLVESGGGLVQAGGSLRLSCAASGSTFGRYDMGSYRQAPGKERELVAAISRSGGGTYYADSVKGRFTISRDNAKNTVYLQMNSLKPEDTAVYYCAADYRDYPDSAYYYWGQGTQVTVSS | low polyreactivity
QVQLVESGGGLVQAGGSLRLSCAASGSTFGRYVMGWYRQAPGKEWELVAAISKNAGSTYYADSVKGRFTISRDNAKNTVYLQMNSLKPEDTAVYYCAADWRTKGYDSLGQGTQVTVSS | high polyreactivity
QVQLVESGGGLVQAGGSLRLSCAASGSTFGSNAMGWYRQAPGKERELVAAIDANGGSTYYADSVKGRFTISRDNAKNTVYLQMNSLKPEDTAVYYCAAAGYWYYYVPNDYWGQGTQVTVSS | low polyreactivity
QVQLVESGGGLVQAGGSLRLSCAASGSTFGSNAMGWYRQAPGKERELVAAITGGDVSTYYADSVKGRFTISRDNAKNTVYLQMNSLKPEDTAVYYCNAEYARPAMDYWGQGTQVTVSS | low polyreactivity
QVQLVESGGGLVQAGGSLRLSCAASGSTFGSYAMGWYIQAPGKERELVAAINWSGGITYYADSVKGRFTISRDNAKNTVYLQMNSLKPEDTAVYYCAADTRTYYYGSTYDYEYWGQGTQVTVSS | low polyreactivity
QVQLVESGGGLVQAGGSLRLSCAASGSTFGSYAMGWYRQAPGKERELVAAISRGGGSTYYADSVKGRFTISRDNAKNTVYLQMNSLKPEDTAVYYCAATAQNDSRYGSRYYYWGQGTQVTVSS | high polyreactivity
QVQLVESGGGLVQAGGSLRLSCAASGSTFGSYAMGWYRQAPGKERELVAGISWSGGRTYYADSVKGRFTISRDNAKNTVYLQMNSLKPEDTAVFYCALDTGYYYARYNFWGQGTKVTVSS | low polyreactivity
QVQLVESGGGLVQAGGSLRLSCAASGSTFGTNAMGRYRQAPGKERELVAVITFSGGSTYYADSVKGRFTISRDNAKNTVYLQMNSLKPEDTAVYYCAKDGFITFVYDHDYWGQGTQVTVSS | low polyreactivity
QVQLVESGGGLVQAGGSLRLSCAASGSTFGTNAMGWYRQAPGKERELVAAITKSGGSTYADSVKGRFTISRDNAKNTVYLQMNSLKPEDTAVYYCAAPNRYSVPMYYWGQGTQVTVSS | low polyreactivity
QVQLVESGGGLVQAGGSLRLSCAASGSTFGTNDMGWYRQAPGKEREFVASIDWSGDSTNYADSVKGRFTISRDNAKNTVYLQMNSLKPEDTAVYYCAARVFPPSRHDYWGQGTQVTVSS | high polyreactivity
QVQLVESGGGLVQAGGSLRLSCAASGSTFGTNVMGWYRQAPGKERELVAAISGRGGRTYYADSVKGRFTISRDNAKNTVYLQMNSLKPEDTAVYYCAAPRYYSREYDYWGQGTQVTVSS | high polyreactivity
QVQLVESGGGLVQAGGSLRLSCAASGSTFGTYAMGWYRQAPGKERELVADITGSGGSTYYADSVKGRFTISRDNAKNTVYLQMNSLKPEDTAVYYCAAEYGLGDDTAYGYWGQGTQVTVSS | low polyreactivity
QVQLVESGGGLVQAGGSLRLSCAASGSTFGVNAKGWYREAPGKERELVAGITSSGGSTYYADSVKGRFTTSRDNAKNTVYLQMNSLKPEDTAVYYCAARWIPASYGYGYWGQGTQVTVSS | low polyreactivity
QVQLVESGGGLVQAGGSLRLSCAASGSTFGVNAMGWYRQAPGKERELVAAIDADGGITYYADSVKGRFTISRDNAKNTVYLQMNILKPEDTAVYYCAARVAVYFSYGSPYWYEYDYWGQGTQVTVSS | low polyreactivity
QVQLVESGGGLVQAGGSLRLSCAASGSTFGVNAMGWYRQAPGKERELVAAISVSGGRTYYADSVKGRFTISRDNAKNTVYLLMNSLKPEDTAVYYCAATTYIWPYDYWGQGTQVTVSS | low polyreactivity
QVQLVESGGGLVQAGGSLRLSCAASGSTFGVNAMGWYRQAPGKERELVAGISVDDSTTYYADSVKGRFTISRDNAKNTVYLQMNSLIPEDTAVYYCAAEREKTLYYLSRFDYWGQGTQVTVSS | low polyreactivity
QVQLVESGGGLVQAGGSLRLSCAASGSTFGVNAMGWYRQAPGKERELVASISSGGGTYYADSVKGRFTISRDNAKNTVYLQMNSLKPEDTAVYYCAAVYYWYDSYAGYDYWGQGTQVTVSS | low polyreactivity
QVQLVESGGGLVQAGGSLRLSCAASGSTFGVNDMGWYRQAPGKERELVAAISRGAITNYADSVKGRFTISRDNAKNTVYLQMNSLKPEDTAVYYCAAGFVTYYVPQYKEYGYDYWGQGTQVTVSS | low polyreactivity
